# Experimental data as given in article PMC10325916, “DNA strand asymmetry generated by CpG hemimethylation has opposing effects on CTCF binding”.
# Values joined by “and” are separate entries in the source; they are usually repeats but may differ in a detail not shown here. Equal entries are not always repeated.
# T1: CTCF ZF1-11 (human, UniProt P49711 266-577)
# T1 sequence: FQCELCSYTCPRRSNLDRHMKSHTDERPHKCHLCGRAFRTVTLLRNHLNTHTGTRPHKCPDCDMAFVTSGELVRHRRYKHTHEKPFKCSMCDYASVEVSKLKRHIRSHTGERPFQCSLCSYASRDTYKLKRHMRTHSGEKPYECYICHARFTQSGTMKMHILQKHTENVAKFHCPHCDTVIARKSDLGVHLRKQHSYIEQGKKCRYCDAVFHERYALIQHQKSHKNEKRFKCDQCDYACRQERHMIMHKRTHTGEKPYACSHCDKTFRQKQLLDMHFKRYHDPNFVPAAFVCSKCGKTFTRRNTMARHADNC
# T2: CTCF FL (human, UniProt P49711 1-727)
# T2 sequence: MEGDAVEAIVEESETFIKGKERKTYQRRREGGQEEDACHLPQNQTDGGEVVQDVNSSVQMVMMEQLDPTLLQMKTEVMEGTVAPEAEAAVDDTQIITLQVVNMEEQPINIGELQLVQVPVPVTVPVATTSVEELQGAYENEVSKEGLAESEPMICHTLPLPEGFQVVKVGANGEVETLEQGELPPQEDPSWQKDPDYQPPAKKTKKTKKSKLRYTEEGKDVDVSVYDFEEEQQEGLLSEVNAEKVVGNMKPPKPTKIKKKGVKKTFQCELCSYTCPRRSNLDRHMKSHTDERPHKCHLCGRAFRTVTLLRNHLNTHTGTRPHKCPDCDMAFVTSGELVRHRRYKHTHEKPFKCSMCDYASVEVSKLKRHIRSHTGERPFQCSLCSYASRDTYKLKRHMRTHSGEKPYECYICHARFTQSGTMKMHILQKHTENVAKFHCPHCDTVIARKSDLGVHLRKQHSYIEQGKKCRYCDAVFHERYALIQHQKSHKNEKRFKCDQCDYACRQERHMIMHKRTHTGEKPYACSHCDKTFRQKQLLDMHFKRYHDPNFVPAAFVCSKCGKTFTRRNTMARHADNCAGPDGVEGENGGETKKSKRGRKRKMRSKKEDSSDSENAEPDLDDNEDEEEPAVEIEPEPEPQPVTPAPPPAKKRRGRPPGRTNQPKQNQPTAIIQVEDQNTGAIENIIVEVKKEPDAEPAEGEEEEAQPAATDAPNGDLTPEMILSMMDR
# B1: Cen-CTCF full 5hmC (dsDNA)
# DNA 1: AGGCCGCCAGAGAGCGCCC
# DNA 2: GGGCGCTCTCTGGCGGCCT
# modifications: 5hmC at CpGs, both strands
# B2: Cen-CTCF motif strand 5hmC (dsDNA)
# DNA 1: AGGCCGCCAGAGAGCGCCC
# DNA 2: GGGCGCTCTCTGGCGGCCT
# modifications: 5hmC motif strand
# B3: Negative control (dsDNA)
# DNA 1: AAGACGATTCTGGATTGTA
# DNA 2: TACAATCCAGAATCGTCTT
# B4: Cen-CTCF unmethylated (dsDNA)
# DNA 1: AGGCCGCCAGAGAGCGCCC
# DNA 2: GGGCGCTCTCTGGCGGCCT
# B5: Cen-CTCF full methylation (dsDNA)
# DNA 1: AGGCCGCCAGAGAGCGCCC
# DNA 2: GGGCGCTCTCTGGCGGCCT
# modifications: 5mC at C2 and C12 CpGs, both strands
# B6: Cen-CTCF motif C12 + opposite C2 5mC (dsDNA)
# DNA 1: AGGCCGCCAGAGAGCGCCC
# DNA 2: GGGCGCTCTCTGGCGGCCT
# modifications: 5mC motif C12 and opposite C2
# B7: Cen-CTCF motif C12 + opposite C12 5mC (dsDNA)
# DNA 1: AGGCCGCCAGAGAGCGCCC
# DNA 2: GGGCGCTCTCTGGCGGCCT
# modifications: 5mC motif C12 and opposite C12
# B8: H19 unmethylated (dsDNA)
# DNA 1: GTTGCCGCGTGGTGGCAG
# DNA 2: CTGCCACCACGCGGCAAC
# B9: H19 full methylation (dsDNA)
# DNA 1: GTTGCCGCGTGGTGGCAG
# DNA 2: CTGCCACCACGCGGCAAC
# modifications: 5mC C2 both strands
# B10: H19 motif C2 5mC (dsDNA)
# DNA 1: GTTGCCGCGTGGTGGCAG
# DNA 2: CTGCCACCACGCGGCAAC
# modifications: 5mC motif strand C2
# B11: H19 opposite C2 5mC (dsDNA)
# DNA 1: GTTGCCGCGTGGTGGCAG
# DNA 2: CTGCCACCACGCGGCAAC
# modifications: 5mC opposite strand C2
# B12: Telo-CTCF (dsDNA)
# DNA 1: TCCCCACCAGGGGGAGCAC
# DNA 2: GTGCTCCCCCTGGTGGGGA
# B13: Cen-CTCF motif C2+C12 5mC (dsDNA)
# DNA 1: AGGCCGCCAGAGAGCGCCC
# DNA 2: GGGCGCTCTCTGGCGGCCT
# modifications: 5mC motif strand C2, C12
# B14: Cen-CTCF motif C2 5mC (dsDNA)
# DNA 1: AGGCCGCCAGAGAGCGCCC
# DNA 2: GGGCGCTCTCTGGCGGCCT
# modifications: 5mC motif strand C2
# B15: Cen-CTCF motif C12 5mC (dsDNA)
# DNA 1: AGGCCGCCAGAGAGCGCCC
# DNA 2: GGGCGCTCTCTGGCGGCCT
# modifications: 5mC motif strand C12
# B16: Cen-CTCF opposite C2+C12 5mC (dsDNA)
# DNA 1: AGGCCGCCAGAGAGCGCCC
# DNA 2: GGGCGCTCTCTGGCGGCCT
# modifications: 5mC opposite strand C2, C12
# B17: Cen-CTCF opposite C2 5mC (dsDNA)
# DNA 1: AGGCCGCCAGAGAGCGCCC
# DNA 2: GGGCGCTCTCTGGCGGCCT
# modifications: 5mC opposite strand C2
# B18: Cen-CTCF opposite C12 5mC (dsDNA)
# DNA 1: AGGCCGCCAGAGAGCGCCC
# DNA 2: GGGCGCTCTCTGGCGGCCT
# modifications: 5mC opposite strand C12
# B19: Cen-CTCF motif C2 + opposite C2 5mC (dsDNA)
# DNA 1: AGGCCGCCAGAGAGCGCCC
# DNA 2: GGGCGCTCTCTGGCGGCCT
# modifications: 5mC motif C2 and opposite C2
# B20: Cen-CTCF motif C2 + opposite C12 5mC (dsDNA)
# DNA 1: AGGCCGCCAGAGAGCGCCC
# DNA 2: GGGCGCTCTCTGGCGGCCT
# modifications: 5mC motif C2 and opposite C12
# B21: H19 full 5hmC (dsDNA)
# DNA 1: GTTGCCGCGTGGTGGCAG
# DNA 2: CTGCCACCACGCGGCAAC
# modifications: 5hmC C2 both strands
# B22: H19 motif strand 5hmC (dsDNA)
# DNA 1: GTTGCCGCGTGGTGGCAG
# DNA 2: CTGCCACCACGCGGCAAC
# modifications: 5hmC motif strand C2
# Target: T1, CTCF ZF1-11
# Assay: fluorescence polarization; 20 mM Tris-HCl pH 7.5, 300 mM NaCl, 5% glycerol, 0.5 mM TCEP, 25 C, 15 min, 5 nM FAM-oligo
# Conditions: protein: recombinant; tags: 6xHis-SUMO, used tagged and untagged (no change in results); label: FAM on motif strand
row,Binder,binding signal
1,B1,~4 fold lower affinity vs N2
2,B2,~4 fold lower affinity vs N2

# Target: T1, CTCF ZF1-11
# Assay: as above
# Conditions: protein: recombinant; tags: 6xHis-SUMO, used tagged and untagged (no change in results); label: FAM
row,Binder,Kd
1,B3,~1000 nM

# Same assay, conditions: protein: recombinant; tags: 6xHis-SUMO, used tagged and untagged (no change in results); label: FAM on motif strand
row,Binder,Kd
1,B4,163 nM and ~200 nM
2,B5,1080 ± 217 nM
3,B6,243 ± 18 nM
4,B7,303 ± 28 nM
5,B8,149 nM and ~200 nM
6,B9,294 nM
7,B10,346 nM
8,B11,89 nM
9,B12,~5 nM
10,B13,1030 ± 114 nM
11,B14,949 ± 165 nM
12,B15,428 ± 37 nM
13,B16,37 ± 2 nM
14,B17,81 ± 5 nM
15,B18,77 ± 5 nM
16,B19,799 ± 110 nM
17,B20,839 ± 74 nM

# Target: T2, CTCF FL
# Assay: as above
# Conditions: protein: recombinant; tags: 6xHis-SUMO, used tagged or removed (untagged for FL); label: FAM on motif strand
row,Binder,Kd
1,B4,~200 nM
2,B8,~200 nM
3,B12,~5 nM

# Target: T1, CTCF ZF1-11
# Assay: as above
# Conditions: protein: recombinant; tags: 6xHis-SUMO, used tagged and untagged (no change in results); label: FAM on motif strand
# Remark: another data set of the same source
row,Binder,binding signal
1,B21,~2 fold lower affinity vs N3
2,B22,~2 fold lower affinity vs N3
